Measured values from article PMC10399903.

How the values were obtained:
Test in all cases: phage adsorption assay; 10^6 pfu of χ phage added to 10 ml LB cultures of motile cells at OD600 2.0, shaken ten minutes at 37°C; cells pelleted at 15,000 x g and phage left in the supernatant titered by plaque assay; adsorption = (1 - pfu supernatant with cells/pfu control without cells) * 100%
[1] = molecular target: ser. Enteritidis FliC with both D2 domains and D3 replaced by their ser. Typhimurium equivalents (strain FliC11) (Salmonella enterica serotype Enteritidis P125109 | Salmonella enterica serotype Typhimurium 14028s) (UniProt Q06972)
[2] = molecular target: ser. Typhimurium FliC with D3 replaced by D3 from ser. Enteritidis FliC (strain FliC6) (Salmonella enterica serotype Typhimurium 14028s | Salmonella enterica serotype Enteritidis P125109) (UniProt P06179)
[3] = molecular target: ser. Typhimurium FliC with a deletion of D3 (strain FliC3) (Salmonella enterica serotype Typhimurium 14028s) (UniProt P06179)
[4] = molecular target: wild type ser. Typhimurium FliC (strain FliC1) (Salmonella enterica serotype Typhimurium 14028s) (UniProt P06179)

Bacteriophage χ (Chi)
percentage of phage particles adsorbed after ten minutes [1]: 48% | percentage of phage particles adsorbed after ten minutes [2]: 67% | percentage of phage particles adsorbed after ten minutes [3]: 95% | percentage of phage particles adsorbed after ten minutes [4]: 99%
